# Data taken from paper PMC4631479, “The structure of the GemC1 coiled coil and its interaction with the Geminin family of coiled-coil proteins” (Acta Crystallographica Section D: Biological Crystallography, 2015).
# Biological target: the molecule itself
# Test: SEC-MALS; Superdex 75 HR 10/30 with miniDAWN light-scattering and refractive-index detectors; 100 ul of purified tGemC1 dimer at ~2.0 mg/ml injected
protein,measurement,value
"tGemC1^L123,130E (GemC1 coiled-coil domain variant, residues 64-146, L123E and L130E) (domain or fragment, human, UniProt A6NCL1 64-146, looked up, Geminin coiled-coil domain-containing protein 1 (GemC1), human, UniProt A6NCL1, residues 64-146, with L123E and L130E; codon-optimized synthetic gene; The His tag is called cleavable; also called tGemC1 homodimer; tGemC1-tGemC1; source: expressed from pETNKI-His-3CLIC-kan, purified (IMAC, size-exclusion chromatography)) DSNFPLPDLCSWEEAQLSSQLYRNKQLQDTLVQKEEELARLHEENNHLRQYLNSALVKCEEEKAKKELSSDEFSKAYGKFRKG",stoichiometry N,2
